Literature values in PMC4286324.

Target: Nef (Human immunodeficiency virus 1) (UniProt P04324)

Q: For Hck SH3 (from UniProt P08631), which Kd is on record?
A: The Kd was 250 nM.
